# Test system: Escherichia coli TOP10
# Test: shrunken log2 fold change of peptide-encoding DNA abundance (4.5 h post-induction vs induction); higher = less antimicrobial activity (less host growth inhibition)
# Details: time post-induction: 4.5 h; library: site-saturation at positions 5, 18, 19, 20
# 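Further: peptides expressed intracellularly from a pBAD plasmid library in pooled LB shake-flask culture, induced with 0.3% L-arabinose, DNA abundance read by NGS, three biological replicates, DESeq2 with apeglm shrinkage.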
row,Sequence,shrunken log2 fold change
1,RRIRDRPPRLPRPRPRPMIVPRP,0.00989
2,RRIRDRPPRLPRPRPRPMIPPRP,-0.184
3,RRIRHRPPRLPRPRPRPMMNPRP,-0.0135
4,RRIRCRPPRLPRPRPRPNVRPRP,-0.000423
5,RRIRGRPPRLPRPRPRPIPAPRP,0.913
6,RRIRLRPPRLPRPRPRPYDTPRP,-0.925
7,RRIRCRPPRLPRPRPRPLQNPRP,-0.0876
8,RRIRMRPPRLPRPRPRPIPLPRP,0.00552
9,RRIRDRPPRLPRPRPRPYWLPRP,-0.236
10,RRIRARPPRLPRPRPRPTFHPRP,0.177
11,RRIRERPPRLPRPRPRPRQSPRP,-0.0972
12,RRIRVRPPRLPRPRPRPKTQPRP,0.0766
13,RRIRIRPPRLPRPRPRPEWAPRP,0.0716
14,RRIRNRPPRLPRPRPRPRHLPRP,-0.337
15,RRIRMRPPRLPRPRPRPQIMPRP,-0.0466
16,RRIRTRPPRLPRPRPRPRSFPRP,-0.0927
17,RRIRVRPPRLPRPRPRPQFNPRP,-0.389
18,RRIRVRPPRLPRPRPRPKDMPRP,-0.272
19,RRIRGRPPRLPRPRPRPQTYPRP,0.0285
20,RRIRERPPRLPRPRPRPQPDPRP,-0.258
21,RRIRERPPRLPRPRPRPWRNPRP,0.0891
22,RRIRHRPPRLPRPRPRPIHGPRP,-0.0135
23,RRIRNRPPRLPRPRPRPERGPRP,0.296
24,RRIRARPPRLPRPRPRPTCPPRP,0.444
25,RRIRWRPPRLPRPRPRPWNYPRP,-0.98

row,Sequence,shrunken log2 fold change
1,RRIRNRPPRLPRPRPRPLHSPRP,-0.16
2,RRIRKRPPRLPRPRPRPQVPPRP,0.325
3,RRIRDRPPRLPRPRPRPKFTPRP,-0.0602
4,RRIRTRPPRLPRPRPRPRGKPRP,0.259
5,RRIRNRPPRLPRPRPRPKCPPRP,-0.124
6,RRIRCRPPRLPRPRPRPNERPRP,0.0333
7,RRIRVRPPRLPRPRPRPKRVPRP,0.0344
8,RRIRGRPPRLPRPRPRPKHVPRP,0.0824
9,RRIRSRPPRLPRPRPRPAIHPRP,-0.912
10,RRIRWRPPRLPRPRPRPIIAPRP,0.00853
11,RRIRMRPPRLPRPRPRPVIIPRP,-0.331
12,RRIRRRPPRLPRPRPRPLFAPRP,0.755
13,RRIRNRPPRLPRPRPRPINTPRP,-0.574
14,RRIRTRPPRLPRPRPRPEDQPRP,0.112
15,RRIRERPPRLPRPRPRPSSRPRP,-0.107
16,RRIRFRPPRLPRPRPRPTNFPRP,-0.0824
17,RRIRPRPPRLPRPRPRPAYLPRP,-0.317
18,RRIRDRPPRLPRPRPRPTAFPRP,0.231
19,RRIRSRPPRLPRPRPRPWWTPRP,-0.127
20,RRIRERPPRLPRPRPRPALGPRP,0.37
21,RRIRGRPPRLPRPRPRPDILPRP,0.785
22,RRIRLRPPRLPRPRPRPDFPPRP,0.24
23,RRIRYRPPRLPRPRPRPCECPRP,-0.0717
24,RRIRFRPPRLPRPRPRPSNVPRP,-0.989
25,RRIRTRPPRLPRPRPRPCVDPRP,0.0267

row,Sequence,shrunken log2 fold change
1,RRIRVRPPRLPRPRPRPWRIPRP,-0.00931
2,RRIRRRPPRLPRPRPRPDLVPRP,0.0743
3,RRIRFRPPRLPRPRPRPYLTPRP,-0.875
4,RRIRKRPPRLPRPRPRPAFYPRP,0.114
5,RRIRPRPPRLPRPRPRPYDHPRP,-0.0209
6,RRIRCRPPRLPRPRPRPMCKPRP,-0.109
7,RRIRHRPPRLPRPRPRPGWVPRP,0.0965
8,RRIRFRPPRLPRPRPRPFNPPRP,-0.733
9,RRIRWRPPRLPRPRPRPNDQPRP,0.0201
10,RRIRERPPRLPRPRPRPSCMPRP,-0.416
11,RRIRTRPPRLPRPRPRPGIRPRP,-0.0147
12,RRIRVRPPRLPRPRPRPINHPRP,-0.464
13,RRIRKRPPRLPRPRPRPDDEPRP,0.143
14,RRIRNRPPRLPRPRPRPRIFPRP,-0.442
15,RRIRPRPPRLPRPRPRPYVHPRP,-0.356
16,RRIRVRPPRLPRPRPRPYAEPRP,-0.0642
17,RRIRKRPPRLPRPRPRPICYPRP,0.125
18,RRIRNRPPRLPRPRPRPENIPRP,-0.435
19,RRIRMRPPRLPRPRPRPHALPRP,-0.541
20,RRIRRRPPRLPRPRPRPGVAPRP,0.858
21,RRIRERPPRLPRPRPRPVKYPRP,-0.0311
22,RRIRERPPRLPRPRPRPKTMPRP,-0.293
23,RRIRWRPPRLPRPRPRPWPTPRP,0.336
24,RRIRHRPPRLPRPRPRPQFAPRP,0.0852
25,RRIRQRPPRLPRPRPRPKEHPRP,-0.117

row,Sequence,shrunken log2 fold change
1,RRIRQRPPRLPRPRPRPKHWPRP,0.0984
2,RRIRTRPPRLPRPRPRPMWMPRP,-0.177
3,RRIRPRPPRLPRPRPRPTSSPRP,0.0475
4,RRIRERPPRLPRPRPRPFGKPRP,-0.01
5,RRIRARPPRLPRPRPRPLWHPRP,0.108
6,RRIRCRPPRLPRPRPRPTSNPRP,-0.1
7,RRIRMRPPRLPRPRPRPARCPRP,1.16
8,RRIRGRPPRLPRPRPRPSNTPRP,-0.023
9,RRIRMRPPRLPRPRPRPRCEPRP,0.704
10,RRIRYRPPRLPRPRPRPVNFPRP,0.00408
11,RRIRLRPPRLPRPRPRPDKKPRP,-0.0455
12,RRIRERPPRLPRPRPRPMGPPRP,-0.0976
13,RRIRERPPRLPRPRPRPTMPPRP,-0.124
14,RRIRLRPPRLPRPRPRPWADPRP,-0.118
15,RRIRKRPPRLPRPRPRPECSPRP,0.854
16,RRIRWRPPRLPRPRPRPKEPPRP,0.117
17,RRIRCRPPRLPRPRPRPKINPRP,-0.645
18,RRIRTRPPRLPRPRPRPVLSPRP,-0.328
19,RRIRGRPPRLPRPRPRPCKSPRP,-0.00288
20,RRIRTRPPRLPRPRPRPRKRPRP,0.152
21,RRIRIRPPRLPRPRPRPQSTPRP,-0.427
22,RRIRNRPPRLPRPRPRPYTNPRP,-0.424
23,RRIRYRPPRLPRPRPRPHNCPRP,-0.381
24,RRIRFRPPRLPRPRPRPDWQPRP,0.0911
25,RRIRCRPPRLPRPRPRPDPLPRP,0.00869

row,Sequence,shrunken log2 fold change
1,RRIRYRPPRLPRPRPRPHYKPRP,-0.316
2,RRIRERPPRLPRPRPRPQWEPRP,-0.0702
3,RRIRRRPPRLPRPRPRPWVHPRP,0.000557
4,RRIRGRPPRLPRPRPRPECEPRP,1.88
5,RRIRIRPPRLPRPRPRPNKAPRP,0.0028
6,RRIRVRPPRLPRPRPRPCNEPRP,-0.0213
7,RRIRMRPPRLPRPRPRPWYLPRP,-0.0736
8,RRIRCRPPRLPRPRPRPMTAPRP,0.0275
9,RRIRKRPPRLPRPRPRPHKQPRP,0.164
10,RRIRQRPPRLPRPRPRPTLMPRP,0.369
11,RRIRDRPPRLPRPRPRPICTPRP,0.198
12,RRIRWRPPRLPRPRPRPLMDPRP,0.185
13,RRIRERPPRLPRPRPRPHSYPRP,-0.0459
14,RRIRARPPRLPRPRPRPKVYPRP,-0.0122
15,RRIRGRPPRLPRPRPRPDNQPRP,0.168
16,RRIRQRPPRLPRPRPRPRTRPRP,0.225
17,RRIRVRPPRLPRPRPRPQDHPRP,-0.253
18,RRIRDRPPRLPRPRPRPCHQPRP,-0.328
19,RRIRVRPPRLPRPRPRPMQMPRP,-0.0841
20,RRIRLRPPRLPRPRPRPVVPPRP,0.139
21,RRIRGRPPRLPRPRPRPVAWPRP,0.508
22,RRIRVRPPRLPRPRPRPIQSPRP,-0.177
23,RRIRIRPPRLPRPRPRPKIDPRP,-0.573
24,RRIRWRPPRLPRPRPRPHDPPRP,0.23
25,RRIRCRPPRLPRPRPRPWNYPRP,-0.282

row,Sequence,shrunken log2 fold change
1,RRIRGRPPRLPRPRPRPSHFPRP,-0.621
2,RRIRRRPPRLPRPRPRPVFQPRP,0.00379
3,RRIRGRPPRLPRPRPRPFYFPRP,0.219
4,RRIRCRPPRLPRPRPRPIIIPRP,-0.816
5,RRIRMRPPRLPRPRPRPVWAPRP,0.466
6,RRIRDRPPRLPRPRPRPQHQPRP,-0.108
7,RRIRERPPRLPRPRPRPYNKPRP,-1.11
8,RRIRSRPPRLPRPRPRPMSFPRP,-0.374
9,RRIRIRPPRLPRPRPRPCDQPRP,-0.021
10,RRIRTRPPRLPRPRPRPIEYPRP,-0.233
11,RRIRFRPPRLPRPRPRPKRFPRP,0.0111
12,RRIRDRPPRLPRPRPRPWRGPRP,0.196
13,RRIRGRPPRLPRPRPRPMVGPRP,0.108
14,RRIRARPPRLPRPRPRPCNCPRP,0.00702
15,RRIRMRPPRLPRPRPRPNYRPRP,-0.133
16,RRIRMRPPRLPRPRPRPELCPRP,3.34
17,RRIRLRPPRLPRPRPRPQTHPRP,0.0338
18,RRIRSRPPRLPRPRPRPADQPRP,0.58
19,RRIRHRPPRLPRPRPRPRHIPRP,-0.39
20,RRIRVRPPRLPRPRPRPKSRPRP,0.0366
21,RRIRNRPPRLPRPRPRPMWVPRP,0.0358
22,RRIRLRPPRLPRPRPRPEYRPRP,-0.0221
23,RRIRFRPPRLPRPRPRPDCAPRP,0.0274
24,RRIRIRPPRLPRPRPRPMVVPRP,-0.0948
25,RRIRWRPPRLPRPRPRPCAFPRP,0.176
